A protein production outcome set (Wang et al. 2014)

test: label from the status in PepcDB records
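Note: failed if final PepcDB status was selected cloned or expressed and not failed if soluble or beyond.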

Sequence | protein production
MTGCFLWQLYLPKLQTGSLKPEVPPAPVKMCPRHPELVPLAHPLPVLKEALEKVDGILRKAMLAPGLAAMSALVIHNDTVLWTGNFGRKNGSDPNSGTPNEYTMYRIASISKIFPVLMLYRLWEEGIVDSLDDPLERYASTFSINNPLGTAQGPGAQGPTGESEEMGSLPRPSPVTLRRMASQLSGLPRRLRGTSLLWRGSTQEALSLLKDDVLVADPGTRCHYSTLAFSLLAHVLAAHRAQGDYERWVSEQVLEPLGMSDTGFALTGTVRARLAAGFYGSGRSAPLYDLGWYRPSGQMYSTAADLARLAAALLGAGPRRLLRPDSLATLLAPLRACAHGYFASETGTPWEFHERRGYRVARKDGDLDGYAASLALVPPLRLGFVLLLAGPRPPTRDLVADALDTLLPALERALREAELAPAPPPRARPFAGFFTFANRTFYEVRAAGPRGELRLRQFGPRVEALVPAAFRSLALRHVRGRVFQLHVAREFPCALPLADAWLSLESQHGQLVRFYPLDRHGLAPGFDSCDSMDGWNTTCSAVHFLEDVWVVYNLQFL | failed
MTGDYALCGWRVRIDRPSTFAPPWIGEDRPVDITIRHAAFSPPSPPLLFESPLVGVFAEGAIVLRINPGLGFLIEGGARITVDATAQTGEAEIATFLFGQCLGFLALQRRQPALRAASVVRDGRAVVLAGAAGVGKSTLAAALMAKGWGLLADEVTLIDPRTLLIPPAFGRIKLWKDSATHLGLEAAALPAVRPGWNKGHAPYGGHLAPAPVPLAAIILIEQAYTAKTAGIDKIAPREALAALNDQLHGGTFAGALAARPACFDLLTTLVGGVPVFQLSRPWHGMTLAPLVELLTAEMARLEHHHHHH | failed
MTGEGRYEEVEAEARTLAALPRRPWRRRPPHWEARVLATGAAVMHGRMAEALDELDTLIAELEPVGLNSQMLRLIARSNRVVALSGLRRYAEAETVANGVLRELNQIAHRAPVSGLETNTLRHLATVLCGLARHEEAEAVVRGNLSRANGPAAGVLHTTLAQSLNGQGRYEEALAEVRRSPPRPPRYAAGHPDLVAAEALYGLGRRAEAEDAVRRSLADCERWLHPAHPRTGEARALLARVTGPKPGEESRGEPGE | failed
MTGFASLPVEFLITVFAMSFSIGFVAIIAGTGGGVLFTSCLWDLHQYIRTNKSNRTSFGDCWAIGPTINLIMLAPLKIATTTSAVVISIGDTAAIFPYFMSGSLLPIFAVPAVAGLMTGARFGSAVAVRVKAKYIRYTLTTILLFAGIKLIWVGLWMLEG | failed
MTGIWEENTGKQSGDHSTPLRWRCFKHEKNRPPSLVPGQQSGIILACFRRGPPPRCLVKRLPYPGSALVLRRYIMSTSPVTLMVARRVADGRYQDLIAWLREGEQLATDFPGYLGSGVLAPPPNDDEFQIIFRFADESTLHTWEHSASRTAWLARGSDLFAHPSEHRVSGIDGWFGAAGHRPPRWKQAVAIWLAFFPVSLLFNFVLGPLLGDLSLLPRVFVSTLALTPLMVYFFIPLSTRLLANWLNSTPARPLPATPSTQNP | failed
MTGKAKPKKHTAKEIQAKIDAALTNRGGGKAGIADRTGKEKGGHAKYECPHCKITAPGLKTMQIHHESKHPNIIYEESKLVNLHAVLAPVAESKPKPGIRGSLKK | failed
MTGPLAAARSVAATKSMTAPTVDERPDIKKGLAGVVVDTTAISKVVPQTNSLTYRGYPVQDLAARCSFEQVAFLLWRGELPTDAELALFSQRERASRRVDRSMLSLLAKLPDNCHPMDVVRTAISYLGAEDPDEDDAAANRAKAMRMMAVLPTIVAIDMRRRRGLPPIAPHSGLGYAQNFLHMCFGEVPETAVVSAFEQSMILYAEHGFNASTFAARVVTSTQSDIYSAVTGAIGALKGRLHGGANEAVMHDMIEIGDPANAREWLRAKLARKEKIMGFGHRVYRHGDSRVPTMKRALERVGTVRDGQRWLDIYQVLAAEMASATGILPNLDFPTGPAYYLMGFDIASFTPIFVMSRITGWTAHIMEQATANALIRPLSAYCGHEQRVLPGTF | not failed
MTGQVLDGRYRLVERLGSGGMGEVWRGHDERLGRTVAIKLIHPGASVDDEAVALFRREAQVTARLAGHPNIVILYDYGTDGDTVYTVMELVTGCSLSALLRERGRLPVELAVRWGAHVCAGLAAAHAVGVVHRDIKPSNLMVVDADAPDGGTVKLVDFGIAGFHEAALHQRTLPPTGEPFGTPLYVSPEQIQMLPVGAFSDLYSFGAVLFHMLTGQPPFHAAEPMPVLRMHLTEPPPNPAELRPDVPAELAELVLMLLAKDPGQRPDNALWVRDRLLSLSGTSPPASAASPTESASREAQMRRLEQSWVEAERLAAAGQAAAAAQRIGALLGELAAIYGADHPATLEARRRHASLTSRAGDPERAAALFDTLVADLDRIYGHAHPETYAARHHLAAATEQAGRRAEAAVLRSELVDALTAQYGPQAARLLHPRLFYAVDLAEAGDFTGAEKLLRDLAAALEQQLGAHTPALQIVHHYLDAAAAFASETAGAEPPHPNRFRESTRLDGRPPPHPLRQRLTRWLRSTTEL | failed
MTGTPCPDFTLPGTAGADFQLSSSRKPLVIYFYPKDNTPGCTNESMAFRDLHPEFAALGAEIVGISRDSLKSHQNFKAKLELPFELLSDSEETACSLFGVIKMKNMYGKQVRGIERSTFVIDASGKVSREWRGVKVPGHAEEVLAYVKTLK | failed
MTGVIAGPSVLGAVSSGSIESLAELGVILLLFTIGLEMSAERFGEFRRTALIGGTLQICLTVSVVTILTMVLGLSPGKAVFLGFLISLSSTAVVLKVLQDFHETEAPHGQASLAILIFQDVAAVPMILTVPFLGGVVGDPSSALGTLLTAGAVLPWEPCIGKVLVPRLFDVVAATGSREIFLLTVILVCASVTWLTGEVGLSPALGAFLVGSIVANTEYAHRAQGTILPFQEVFLSFFFVSLGMLLDLRFFLDHIYLIVLAVIGVLMIKVVMNSLVGFVMGYSARVVVLLGLVLAQIGEFSFILSETGLRYGLMDRLTFQAFLSVSLITMAITPFLISLSPRISERIVRADLHPRIKNGRVYRRPSVDLRDHLIIIGMGITGRRLADTCEDHGIPYIGLDVNPEAVRRARDEGLNVYYGDGTHLAVLRHFNVPEAAVMVIAIADYRSTVHAIHEARALNEGMKIIARIRGFENTEMLYTAGADVVVSEKREATRRISDEIFSCYSGVCELEE | failed
MTHCADNGAPLAARQSAARARMSLPVDSPDAATAADSLPPAPAPRPRAPASLVVLATLAVGYTLWAAQTIILPIMLAAFFALIGNPILRGLRKLYIPRFLGALLILCLGLAGTVTLAAQLAGPAAEWVQQAPRQMRQIARDVRDLTKPVMQANQAAENFARAAGGEGQRGVQIVRTQMDDPYKALVRTPKLAASVLAVVLLTFFFMVYGESLQRHAIALLPNRQQQRFTTEIMLDIEREVSRYVLTISVINTLVGLVFAGILYVLQIPLPEAILWGTVVALLNFAPYVGPLIGVMLMLLMGFVEFRTTLSSLLPAILYLALHTIEGQVVTPIVLGRRMAISPLMLILALMLFGWLWGMVGLLLAVPLLVCIKMVLSRVDGMQRWARLLE | failed
MTHEAMSPGEWKAKGGGLTIRYGFHASPFGLALVMITDRGLAGCAFADPGDERACFEDMAGRWPNADYVEDREATAPYAARIFEPAMWTADKPLRVVLEHHHHHH | not failed
MTHERGYDLASQVLNICNVHHKKLFCHITYRHLLVLSSDDNGCVILKKVITIADDFLKDEFLDLIAQHAHSLSMHDLGISLIQHVLELDFTKKTTQDDKRLHELMAEFDEVLSTSVTADVDKLHKLASKLMLDSDLFFEFVITRRGSLMIQIILGKSEEVDQVILAGVKQRFIDVTTNFYGYRIMIQTIKVFKKRGDLKVYDQILRLIGVHALYLTKDPDMGNKTFQHAINLHHQDCTTFIACGLQSHYIELSFLKHGSKIVEMLIDDRISMVPLVLLMMEIVKCDEDTLVRLATDEYGNNILKKFLALAKEHKEDFFGDLVDKLNPLLDSLRGTLGENIVAIIDSETEMVKDRIVSQGNN | failed
MTHPFEPFFDKDSKILILGSFPSIKSRQDGFYYQHPRNRFWPILETLFNAKLENITEQQAFLRKKHIALWDVLQSCKIKNSDDKTISYAKANDLNLILSQTKIQAIFTTGQSAYRFFVKFHPRLEAIALPSTSPANLNFSFEQLLQNYEIIKKFTKLEHHHHHH | failed
MTHPLYIFDLDETLINGDCAMIWNEFLVDKGIVTTPDFLEEDKRLMTLYSRGLMDMEDYLIFAMSPLKNIPTDQVEILIEECVNERILPLLFPEAKILIHQLKADNVDMIVISASVSFLVKIVAKNIGIKHAIGIDLKEKNGCYTRHILGVPSYREGKVSRLTEWLNGGDKTYSALHFYTDSINDLPLCLYADHTYLVNPCEQLAVYSKKKNWPILAWGSQ | failed
MTHRPMLNKIKLFFIVQIILSFLVLAGTLISILVIPSHLPDYFIWAIAFSFWVFQCGFSTIFAFRYRISKSSLSTIKLSFILIGSIQILITLATNLFGIFDLPIFNTLIIKNFQFLILSLIFIVMIYKLIKDMLKYRVLKDYIIRDSFFTFIPFAFIIYKNSKYFISSIYFLDDSVYSLALLNINSLRIFLEGFLIILIFVKTIYLRGNKKSSFLLLIYFYVSNLNCYIVSYFNSKLLFSHYLYQGIGIYFICPILLMLSIYHSITEQEKAPDQVLFDDSYMNINNSWISITIGIFPVSFSAIDIISSSIASGDFNGIESLVIILLVMILLVCRDVILRKDNLRLIASVKRANEIDFLTNMYSRNYFLKKLETINTDYALFFIDIKSFKDINNIFGHVVGDKVLVEVANKFKELKLLLGKNVFYCRYSGNEFALISKLDQVDLILKFFRDLENIKIQHNSDLIHINFNIGYSLNDSNINLDLLIQETDYALMRAKKLKGPNNSILMYDDNLKTDLEHMNILKKDFKNDLLTGKFHLVFQPKVCVKTLKIVGFETLLRWKHDKLGEISPSKFVPIAENLGEISSLDLYVFKKSCEFQRCLIDKGIKLKCSVNLSLNTLKSYEKINEILNIYKEYKIPKHLITAEILENVSLNNNAKTISYINLLRENGICISIDDFGTGYSSLSQISNLYFDELKIPREFVIDARTPSKLAVIEAISILAKKLKVTSVIEGVENYEDFKLFSSLGFDIVQGYYFSKPLTKSEIIDYIKVNINNKIS | failed
MTHSQQSMVDTFRASLFDNQDITVADQQIQALPYSTMYLRLNEGQRIFVVLGYIEQEQSKWLSQDNAMLVTHNGRLLKTVKLNNNLLEVTNSGQDPLRNALAIKDGSRWTRDILWSEDNHFRSATLSSTFSFAGLETLNIAGRNVLCNVWQEEVTSTRPEKQWQNTFWVDSATGQVRQSRQMLGAGVIPVEMTFLKPAPLEHHHHHH | not failed
MTHTRRALSTVGKGLAALRHLLPLLLCLLVLAGCAKAPYTGRSQFIMVSPQQEMALGQQESRKILSKEPVKTGTDEAQRVETVGRRIAAAARRGDFRWEFHLIGKDVANAFCLPGGKVFVYEGIFKYADTDAELATVMAHEVGHAIARHGAERMSRAMMVQMGHDAAAIALGVAGGSPAAVQAFSQAYGTGANVGLMLPFGREQEYEADRIGLMLMAQAGYDPRAALDFWRKMSSAPGKRPPEFLSTHPTGQHRIAELQARMGDALRVYRPPSGK | failed
MTHVNIMAGGPQACLPAAWEQLPGVWIGVDRGTLRLVRAGIHPELAVGDFDSLTLEELRLVRGHVQKLQQVPSEKDDTDTELAVKAALQASSSGDVTLVGGTGGRLDHFLSNLFLPLQPRFLADVERLHLFDVQNWVDYYSPGEHEIKPLPGYRYVAVVNLTPVADLTIVGAKYPLKPWRAGYPYAWASNEFLGKQPFTVSWTTGQVAIIYSRDRRGQKLDNLEHHHHHH | not failed
MTIAATMLRAITVLMALLLLVAAGPAAAADEGGDLLEQFLGRKYEPVLKPLEIPEGTPPSEALFLYLNQGYGDAGVIGDFLAKGADANYADKEYRITLLHNVAHYGHAEATRILLAAGARVNAVNGEGNTPLFAAVHEGHDDVARILLDAGADVTIANSYWYTPLREACRRGNTGMVRLLLEKGADVNITDNKGFTPLHAAVSAEALEAATLILDSGADINIAGRYGDTPLHYAVGLGYEEFVRLFLARGADPTIRNDRGLTPRQLAEERGFASIVELFRNWGKNTI | failed
